Measurements from patent US20200199234A1 (published 2020).
Blank lines part the entries; values can stand above or below the binder they belong to.

Key:
N(A2B2)A-avi-His [1] = target: T1, N(A2B2)A-avi-His (human, biotinylated avi-tag); test: SPR ProteOn, purified Fab
T1 construct: also called biotinylated N(A2B2)A-avi-His
T1 chain: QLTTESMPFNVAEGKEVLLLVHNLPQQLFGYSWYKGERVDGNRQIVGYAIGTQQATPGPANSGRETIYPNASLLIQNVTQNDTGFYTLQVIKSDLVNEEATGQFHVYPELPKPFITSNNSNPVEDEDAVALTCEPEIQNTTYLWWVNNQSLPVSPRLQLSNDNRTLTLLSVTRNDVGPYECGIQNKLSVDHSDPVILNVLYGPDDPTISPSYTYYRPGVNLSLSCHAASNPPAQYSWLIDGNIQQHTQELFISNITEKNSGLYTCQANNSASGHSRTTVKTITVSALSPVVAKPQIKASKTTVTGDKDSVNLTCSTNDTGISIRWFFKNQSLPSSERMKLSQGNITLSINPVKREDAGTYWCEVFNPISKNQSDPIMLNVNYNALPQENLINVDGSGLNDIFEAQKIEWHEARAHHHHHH

[2] = target: T2, recombinant CD79b-His (Sinobiological #29750-H08H) (Homo sapiens (Human), UniProt P40259 29-159); test: SPR Biacore T200, CD79b-His captured by anti-penta-His
T2 construct: bought protein; also called soluble recombinant CD79b-His
T2 sequence: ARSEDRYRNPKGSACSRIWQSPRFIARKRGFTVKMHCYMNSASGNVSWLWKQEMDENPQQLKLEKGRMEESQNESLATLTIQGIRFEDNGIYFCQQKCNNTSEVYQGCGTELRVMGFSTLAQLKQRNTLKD

N(A2B2)A-avi-His [3] = target: T1, N(A2B2)A-avi-His; test: SPR ProteOn, purified bispecific IgG
[4] = target: T3, FcRn, biotinylated, coupled to streptavidin-sepharose (Homo sapiens (Human), UniProt P55899 24-297; P61769 21-119, The receptor is biotinylated and coupled to streptavidin-sepharose. The patent states neither the biotinylation site nor any tag.); test: FcRn affinity chromatography
T3 construct: also called FcRn-sepharose matrix; copies: 1 + 1

B1: P001.177 Fab fragment (Fab, V domains shown)
VH: EVQLLESGGGLVQPGGSLRLSCAASGFYFTDYYMNWVRQAPGKGLEWLGFISNKANAYTTEYSASVKGRFTISRDKSKNTLYLQMNSLRAEDTATYYCTRDRGLRFYFDYWGQGTTVTVSS
VL: EIVLTQSPATLSLSPGERATLSCRASSSVTYIHWYQQKPGQAPRSWIYATSNLASGIPARFSGSGSGTDFTLTISSLEPEDFAVYYCQHWSSKPPTFGQGTKLEIK
- koff (N(A2B2)A-avi-His [1]): 0.000785 s⁻¹

B2: P005.102 Fab fragment (Fab, V domains shown)
VH: EVQLLESGGGLVQPGGSLRLSCAASGFTFTDYYMNWVRQAPGKGLEWLGFIGNKANAYTTEYSASVKGRFTISRDKSKNTLYLQMNSLRAEDTATYYCTRDRGIRFQFDYWGQGTTVTVSS
VL: EIVLTQSPATLSLSPGERATLSCRASSSVTYIHWYQQKPGQAPRSWIYATSNLASGIPARFSGSGSGTDFTLTISSLEPEDFAVYYCQHWSSKSPTFGQGTKLEIK
- koff (N(A2B2)A-avi-His [1]): 0.000392 s⁻¹

B5: Molecule 11D: CEA (A5H1EL1D)-CD28 (SA_Variant 29) 1+1 format (bispecific antibody, human IgG1, kappa, L234A L235A)
heavy 1: EIVLTQSPATLSLSPGERATLSCRASSSVTYIHWYQQKPGQAPRSWIYATSNLASGIPARFSGSGSGTDFTLTISSLEPEDFAVYYCQHWSSKPPTFGQGTKLEIKSSASTKGPSVFPLAPSSKSTSGGTAALGCLVKDYFPEPVTVSWNSGALTSGVHTFPAVLQSSGLYSLSSVVTVPSSSLGTQTYICNVNHKPSNTKVDKKVEPKSCDKTHTCPPCPAPEAAGGPSVFLFPPKPKDTLMISRTPEVTCVVVDVSHEDPEVKFNWYVDGVEVHNAKTKPREEQYNSTYRVVSVLTVLHQDWLNGKEYKCKVSNKALGAPIEKTISKAKGQPREPQVCTLPPSRDELTKNQVSLSCAVKGFYPSDIAVEWESNGQPENNYKTTPPVLDSDGSFFLVSKLTVDKSRWQQGNVFSCSVMHEALHNHYTQKSLSLSP
light 1: EVQLLESGGGLVQPGGSLRLSCAASGFTFTDYYMNWVRQAPGKGLEWLGFIGNKANAYTTEYSASVKGRFTISRDKSKNTLYLQMNSLRAEDTATYYCTRDRGLRFYFDYWGQGTTVTVSSASVAAPSVFIFPPSDEQLKSGTASVVCLLNNFYPREAKVQWKVDNALQSGNSQESVTEQDSKDSTYSLSSTLTLSKADYEKHKVYACEVTHQGLSSPVTKSFNRGEC
heavy 2: not shown
light 2: not shown
notes: also called P1AE4776; copies: 1 + 1 + 1 + 1
- FcRn affinity (relative retention time) [4]: 0.17

The next lines start with the values.

- Kd [2]: 76 nM
- koff [2]: 0.0195 s⁻¹
- kon [2]: 257000 M⁻¹ s⁻¹
B3: Molecule 18F: CD79b (huMA79b.v28)-CD28 (SA v15) 1+1 (bispecific antibody, human IgG1, kappa, L234A L235A)
heavy 1: not shown
heavy 2: DIQLTQSPSSLSASVGDRVTITCKASQSVDYEGDSFLNWYQQKPGKAPKLLIYAASNLESGVPSRFSGSGSGTDFTLTISSLQPEDFATYYCQQSNEDPLTFGQGTKVEIKSSASTKGPSVFPLAPSSKSTSGGTAALGCLVKDYFPEPVTVSWNSGALTSGVHTFPAVLQSSGLYSLSSVVTVPSSSLGTQTYICNVNHKPSNTKVDKKVEPKSCDKTHTCPPCPAPEAAGGPSVFLFPPKPKDTLMISRTPEVTCVVVDVSHEDPEVKFNWYVDGVEVHNAKTKPREEQYNSTYRVVSVLTVLHQDWLNGKEYKCKVSNKALGAPIEKTISKAKGQPREPQVCTLPPSRDELTKNQVSLSCAVKGFYPSDIAVEWESNGQPENNYKTTPPVLDSDGSFFLVSKLTVDKSRWQQGNVFSCSVMHEALHNHYTQKSLSLSP
light 1: not shown
light 2: EVQLVESGGGLVQPGGSLRLSCAASGYTFSSYWIEWVRQAPGKGLEWIGEILPGGGDTNYNEIFKGRATFSADTSKNTAYLQMNSLRAEDTAVYYCTRRVPIRLDYWGQGTLVTVSSASVAAPSVFIFPPSDEQLKSGTASVVCLLNNFYPREAKVQWKVDNALQSGNSQESVTEQDSKDSTYSLSSTLTLSKADYEKHKVYACEVTHQGLSSPVTKSFNRGEC
notes: also called P1AE9039; CD79b-CD28

- koff (N(A2B2)A-avi-His [3]): 7.99e-05 s⁻¹
B4: CEA(P006.038-combo1)-CD28(SA_Variant 15) bispecific 1+1 IgG (bispecific antibody)
heavy 1: EIVLTQSPATLSLSPGERATLSCRASSSVTYIHWYQQKPGQAPRSWIYATSNLASGIPARFSGSGSGTDFTLTISSLEPEDFAVYYCQHWSSVPPTFGQGTKLEIKSSASTKGPSVFPLAPSSKSTSGGTAALGCLVKDYFPEPVTVSWNSGALTSGVHTFPAVLQSSGLYSLSSVVTVPSSSLGTQTYICNVNHKPSNTKVDKKVEPKSCDKTHTCPPCPAPEAAGGPSVFLFPPKPKDTLMISRTPEVTCVVVDVSHEDPEVKFNWYVDGVEVHNAKTKPREEQYNSTYRVVSVLTVLHQDWLNGKEYKCKVSNKALGAPIEKTISKAKGQPREPQVCTLPPSRDELTKNQVSLSCAVKGFYPSDIAVEWESNGQPENNYKTTPPVLDSDGSFFLVSKLTVDKSRWQQGNVFSCSVMHEALHNHYTQKSLSLSP
light 1: EVQLLESGGGLVQPGGSLRLSCAASGFYFTDYAMNWVRQAPGKGLEWLGVISNKANAYTTEYSASVKGRFTISRDKSKNTLYLQMNSLRAEDTATYYCTRDRGIRFGFDYWGQGTTVTVSSASVAAPSVFIFPPSDEQLKSGTASVVCLLNNFYPREAKVQWKVDNALQSGNSQESVTEQDSKDSTYSLSSTLTLSKADYEKHKVYACEVTHQGLSSPVTKSFNRGEC
heavy 2: not shown
light 2: not shown

- FcRn affinity (relative retention time) [4]: 0.08
B6: Molecule 11B: CEA (A5H1EL1D)-CD28 (SA_Variant 8) 1+1 format (bispecific antibody, human IgG1, kappa, L234A L235A)
heavy 1: EIVLTQSPATLSLSPGERATLSCRASSSVTYIHWYQQKPGQAPRSWIYATSNLASGIPARFSGSGSGTDFTLTISSLEPEDFAVYYCQHWSSKPPTFGQGTKLEIKSSASTKGPSVFPLAPSSKSTSGGTAALGCLVKDYFPEPVTVSWNSGALTSGVHTFPAVLQSSGLYSLSSVVTVPSSSLGTQTYICNVNHKPSNTKVDKKVEPKSCDKTHTCPPCPAPEAAGGPSVFLFPPKPKDTLMISRTPEVTCVVVDVSHEDPEVKFNWYVDGVEVHNAKTKPREEQYNSTYRVVSVLTVLHQDWLNGKEYKCKVSNKALGAPIEKTISKAKGQPREPQVCTLPPSRDELTKNQVSLSCAVKGFYPSDIAVEWESNGQPENNYKTTPPVLDSDGSFFLVSKLTVDKSRWQQGNVFSCSVMHEALHNHYTQKSLSLSP
light 1: EVQLLESGGGLVQPGGSLRLSCAASGFTFTDYYMNWVRQAPGKGLEWLGFIGNKANAYTTEYSASVKGRFTISRDKSKNTLYLQMNSLRAEDTATYYCTRDRGLRFYFDYWGQGTTVTVSSASVAAPSVFIFPPSDEQLKSGTASVVCLLNNFYPREAKVQWKVDNALQSGNSQESVTEQDSKDSTYSLSSTLTLSKADYEKHKVYACEVTHQGLSSPVTKSFNRGEC
heavy 2: not shown
light 2: not shown
notes: also called P1AE4774; copies: 1 + 1 + 1 + 1

- FcRn affinity (relative retention time) [4]: 0.1
B7: Molecule 11C: CEA (A5H1EL1D)-CD28 (SA_Variant 15) 1+1 format (bispecific antibody, human IgG1, kappa, L234A L235A)
heavy 1: EIVLTQSPATLSLSPGERATLSCRASSSVTYIHWYQQKPGQAPRSWIYATSNLASGIPARFSGSGSGTDFTLTISSLEPEDFAVYYCQHWSSKPPTFGQGTKLEIKSSASTKGPSVFPLAPSSKSTSGGTAALGCLVKDYFPEPVTVSWNSGALTSGVHTFPAVLQSSGLYSLSSVVTVPSSSLGTQTYICNVNHKPSNTKVDKKVEPKSCDKTHTCPPCPAPEAAGGPSVFLFPPKPKDTLMISRTPEVTCVVVDVSHEDPEVKFNWYVDGVEVHNAKTKPREEQYNSTYRVVSVLTVLHQDWLNGKEYKCKVSNKALGAPIEKTISKAKGQPREPQVCTLPPSRDELTKNQVSLSCAVKGFYPSDIAVEWESNGQPENNYKTTPPVLDSDGSFFLVSKLTVDKSRWQQGNVFSCSVMHEALHNHYTQKSLSLSP
light 1: EVQLLESGGGLVQPGGSLRLSCAASGFTFTDYYMNWVRQAPGKGLEWLGFIGNKANAYTTEYSASVKGRFTISRDKSKNTLYLQMNSLRAEDTATYYCTRDRGLRFYFDYWGQGTTVTVSSASVAAPSVFIFPPSDEQLKSGTASVVCLLNNFYPREAKVQWKVDNALQSGNSQESVTEQDSKDSTYSLSSTLTLSKADYEKHKVYACEVTHQGLSSPVTKSFNRGEC
heavy 2: not shown
light 2: not shown
notes: also called P1AE4775; copies: 1 + 1 + 1 + 1

- FcRn affinity (relative retention time) [4]: 0.21
B8: Molecule 11A: CEA (A5H1EL1D)-CD28 (SA) 1+1 format (bispecific antibody, human IgG1, kappa, L234A L235A)
heavy 1: EIVLTQSPATLSLSPGERATLSCRASSSVTYIHWYQQKPGQAPRSWIYATSNLASGIPARFSGSGSGTDFTLTISSLEPEDFAVYYCQHWSSKPPTFGQGTKLEIKSSASTKGPSVFPLAPSSKSTSGGTAALGCLVKDYFPEPVTVSWNSGALTSGVHTFPAVLQSSGLYSLSSVVTVPSSSLGTQTYICNVNHKPSNTKVDKKVEPKSCDKTHTCPPCPAPEAAGGPSVFLFPPKPKDTLMISRTPEVTCVVVDVSHEDPEVKFNWYVDGVEVHNAKTKPREEQYNSTYRVVSVLTVLHQDWLNGKEYKCKVSNKALGAPIEKTISKAKGQPREPQVCTLPPSRDELTKNQVSLSCAVKGFYPSDIAVEWESNGQPENNYKTTPPVLDSDGSFFLVSKLTVDKSRWQQGNVFSCSVMHEALHNHYTQKSLSLSP
light 1: EVQLLESGGGLVQPGGSLRLSCAASGFTFTDYYMNWVRQAPGKGLEWLGFIGNKANAYTTEYSASVKGRFTISRDKSKNTLYLQMNSLRAEDTATYYCTRDRGLRFYFDYWGQGTTVTVSSASVAAPSVFIFPPSDEQLKSGTASVVCLLNNFYPREAKVQWKVDNALQSGNSQESVTEQDSKDSTYSLSSTLTLSKADYEKHKVYACEVTHQGLSSPVTKSFNRGEC
heavy 2: not shown
light 2: not shown
notes: also called P1AE4773; copies: 1 + 1 + 1 + 1
